Positions count from the first letter of the chain named. Names and notes keep the numbering of the source. Read-outs that look alike come from different tables or passages of the source. Square brackets hold non-standard residues; d marks the D form. Ends that are not written are not given here. pS = N[C@@H](COP(=O)(O)O)C(=O)O
B1: Nrd1 CID D70A mutant (domain or fragment, S. cerevisiae, UniProt P53617 6-151, looked up)
chain: DFQNFVATLESFKDLKSGISGSRIKKLTTYALDHIDIESKIISLIIDYSRLCPDSHKLGSLYIIASIGRAYLDETRSNSNSSSNKPGTCAHAINTLGEVIQELLSDAIAKSNQDHKEKIRMLLDIWDRSGLFQKSYLNAIRSKCFA
B2: Nrd1 CID D70N mutant (domain or fragment, S. cerevisiae, UniProt P53617 6-151, looked up)
chain: B1 chain with A65N
B3: ScSen1-NIM2-FAM peptide (peptide)
peptide: DDEDDYTPSISD
modifications: also: 5-FAM label: N-terminal per methods, C-terminal per resources table
B4: Nrd1 CID Y67A mutant (domain or fragment, S. cerevisiae, UniProt P53617 6-151, looked up)
chain: B1 chain with Y62A, A65D

Experiments:
Assay in all cases: fluorescence polarisation
[1] = molecular target: T1, S. cerevisiae Nrd1 CID (residues 6-151), N-terminal hexa-histidine tag (S. cerevisiae, UniProt P53617 6-151)
T1 sequence (looked up): B1 chain with A65D

ScSen1-NIM2-FAM peptide = molecular target: B3
[2] = molecular target: T1, S. cerevisiae Nrd1 CID (residues …); remark: listed apart in the source

SPT[pS]PSYSPT[pS]PS [Pol II Ser5P CTD peptide]
Kd [1]: 216 µM

B1
fold increase in Kd for NIM2 against wild-type CID (ScSen1-NIM2-FAM peptide): 30 fold

B2
fold increase in Kd for NIM2 against wild-type CID (ScSen1-NIM2-FAM peptide): 3 fold

B3
Kd [2]: 0.56 µM

B4
fold increase in Kd for NIM2 against wild-type CID (ScSen1-NIM2-FAM peptide): 90 fold

EQEDDYKLPMEYIT [ScSen1-NIM1 peptide]
Kd [1]: 7.6 µM

EAEDPYDLNPHPQ [ScSen1-NIM3 peptide]
Kd [1]: 38 µM

DDEDDYTPSISD [ScSen1-NIM2 peptide]
binding result [1]: binds

DDENDYTPSISD [ScSen1-NIM2-D2056N peptide]
fold increase in Kd against wild-type NIM2 [1]: 13 fold

DDEDDYTVSISD [ScSen1-NIM2-P2060V peptide]
fold increase in Kd against wild-type NIM2 [1]: ~20 fold

DDEDDYTASISD [ScSen1-NIM2-P2060A peptide]
fold increase in Kd against wild-type NIM2 [1]: ~20 fold
